Target: Cartilage oligomeric matrix protein (COMP), full-length, stably overexpressed in prostate cancer cells (human) (UniProt P49747)
Assay: non-reducing SDS-PAGE with western blot; concentrated conditioned medium (Opti-MEM, 2 days) of transfected cells on a 5% non-reducing SDS-PAGE gel, blotted with anti-human COMP; under reducing conditions (10% gel) a sharp band of 130 kDa

Cartilage oligomeric matrix protein (COMP), full-length, stably overexpressed in prostate cancer cells, P49747 21-757 (natural protein; other documents disagree on this pair), sequence (P49747 21-757): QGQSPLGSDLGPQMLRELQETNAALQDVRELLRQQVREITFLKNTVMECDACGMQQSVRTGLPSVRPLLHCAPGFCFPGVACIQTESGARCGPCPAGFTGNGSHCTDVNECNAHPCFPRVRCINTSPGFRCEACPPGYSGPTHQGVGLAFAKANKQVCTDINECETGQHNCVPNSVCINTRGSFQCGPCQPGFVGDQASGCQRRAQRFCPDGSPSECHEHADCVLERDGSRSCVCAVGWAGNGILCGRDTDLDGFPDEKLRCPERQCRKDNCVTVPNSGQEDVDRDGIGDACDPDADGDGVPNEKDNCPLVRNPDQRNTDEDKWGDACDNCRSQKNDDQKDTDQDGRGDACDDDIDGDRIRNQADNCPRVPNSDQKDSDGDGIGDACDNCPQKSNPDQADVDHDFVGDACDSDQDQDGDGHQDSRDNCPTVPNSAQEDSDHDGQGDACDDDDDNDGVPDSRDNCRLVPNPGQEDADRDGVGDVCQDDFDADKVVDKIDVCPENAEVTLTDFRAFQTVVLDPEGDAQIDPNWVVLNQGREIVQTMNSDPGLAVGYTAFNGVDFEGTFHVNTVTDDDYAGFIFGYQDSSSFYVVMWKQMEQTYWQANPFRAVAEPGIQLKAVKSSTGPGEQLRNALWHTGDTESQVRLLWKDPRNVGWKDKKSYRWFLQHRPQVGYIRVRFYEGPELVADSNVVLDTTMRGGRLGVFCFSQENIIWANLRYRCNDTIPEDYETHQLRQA

With “Cartilage oligomeric matrix protein (COMP), full-length, stably overexpressed in prostate cancer cells, P49747 21-757 (natural protein; other documents disagree on this pair)” the stoichiometry N was 5.

Reference: PMC5716730
